{"source": "paper PMC2830701", "about": "(The EMBO Journal, 2009)", "binders": {"B1": {"name": "Bovine auxilin (547–910) (domain or fragment, UniProt Q27974 547-910, looked up)", "chain": "PSGPTSTQSTPRRSATSTSASPTLRVGEGATFDPFGAPSKPSGQDLLGSFLNTASASSDPFLQPTRSPSPTVHASSTPAVNIQPDVSGAWDWHTKPGGFGMGSKSAATSPTGSSHGTPTHQNKPQTLDPFADLGTLGGSSFASKPSTPTGLGGGFPPLSSPQKASPQPMGGGWQQGGGYNWQQTQSKPQSSMPHSSPQNRPNYNVSFSSMPGGQNERGKAAANLEGKQKAADFEDLLSGQGFNAHKDKKGPRTIAEMRKEEMAKEMDPEKLKILEWIEGKERNIRALLSTMHTVLWAGETKWKPVGMADLVTPEQVKKVYRKAVLVVHPDKATGQPYEQYAKMIFMELNDAWSEFENQGQKPLY"}}, "target": "Bovine Hsc70 (1–554) (bovine, UniProt P19120 1-554)", "sequence (P19120 1-554)": "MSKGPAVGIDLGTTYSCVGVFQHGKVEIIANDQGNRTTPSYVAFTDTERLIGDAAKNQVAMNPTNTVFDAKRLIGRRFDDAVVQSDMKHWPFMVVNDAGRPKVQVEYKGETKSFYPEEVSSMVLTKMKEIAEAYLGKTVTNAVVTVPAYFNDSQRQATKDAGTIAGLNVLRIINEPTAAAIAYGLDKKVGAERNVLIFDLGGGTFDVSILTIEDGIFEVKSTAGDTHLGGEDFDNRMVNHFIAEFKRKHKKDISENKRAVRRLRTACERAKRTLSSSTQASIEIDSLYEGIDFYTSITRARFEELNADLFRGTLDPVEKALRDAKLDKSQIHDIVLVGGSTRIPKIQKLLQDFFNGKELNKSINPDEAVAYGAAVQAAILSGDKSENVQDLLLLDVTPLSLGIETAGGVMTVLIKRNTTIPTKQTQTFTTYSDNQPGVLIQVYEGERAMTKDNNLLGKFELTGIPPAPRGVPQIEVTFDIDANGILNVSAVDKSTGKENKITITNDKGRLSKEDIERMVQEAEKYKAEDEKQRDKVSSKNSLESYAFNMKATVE", "experiment": "co-sedimentation"}
{"binder": "B1", "values": [{"measurement": "binding result", "result": "binds"}]}
